This note sets out measurements from PMC6565677, “Kistamicin biosynthesis reveals the biosynthetic requirements for production of highly crosslinked glycopeptide antibiotics” (Nature Communications, 2019).

The labels stand for the following.
B1: Xkis-domain, standalone X-domain of the kistamicin NRPS (residues 1024-1493) (domain or fragment, UniProt A0A1V0AGC2 1024-1493, looked up)
chain: RPVLGPGRRADLDPDGPLPVTARQRRMWLLSRIGDEAEGLHVRVALRLRGRLDRDALAGALADVGGRHEILRTRFPGSRRDVRQEILDAETGRPPLEICPATEDELPGLLADRAGRPFDLTGEVPWRAHLFPLTDREQVLLVVAHRIAADEESVDVLVRDLAAAYGARREGRIPERAPLALQFADYALWERELLAGADERDSLIWDQIEFWRDRLAGGDDEHADTSAPPAGRARPVLPSRRAGSVPLRLPADSHARLLEAARSAGGTMFTAVHAALAMLLSRLDGRTSVTIGTRLPRDEEQTGLVPMVGPFSRWLALPVDLSGDPAFTEILGRARDVSEDAHRHQDLPFERLAELVVPVPSITRHPIFQVALQLDEDDVRPEESWALPGLRTSPVPMPEEAMELDLWLKLLDHRTDEGDADGLVGSLVYAEDRFDRAGAEALAQRLVALLEQVGAAPEVRLSQVDVPGSE
notes: X-domain (Oxy-recruiting domain) of the last module of the kistamicin NRPS, residues 1024-1493 of UniProt A0A1V0AGC2; Unlabelled form used for ITC and crystallisation; also called standalone Xkis domain; source: E. coli ArcticExpress, expressed as MBP fusion, purified (Ni-NTA, TEV cleavage, second Ni-NTA); not shown: His6, N-terminal, cleaved; MBP, N-terminal, cleaved
B2: OxyAkis (KisN), cytochrome P450 Oxy enzyme from kistamicin biosynthesis (enzyme)
chain: MVAPEHRVLHLRDRLDLAAELKLLCERGPLVRIPLEDGSAVHWFALGYDVVREVLGSEKFDKRVIGTHFNHQEMALPGNLLQLDPPEHTRLRRMVAPAYSVRRMQALEPRVQAIVDDHLDTMASTGPPVEFLREVAGPMAARVACEFLGIPLDDRGELIRLTAHRGGKRRRVLNGHAYLAYMRELAARLRRDPGDGMLGMVARDHGADISDEELAGLCAVVMNSSVEQTESCLAAGTLLLLEHPEQFALLRERPELGEQAVEEIVRYLSVFEGLDPRTATEDVEIGGQVIKKGEAVFCSLLAANRADPALDGFDITRKESRHVAFGHGIHHCLGAPLARMELRIAFTTLVSRFPSLRTAVPAEEIRFRPPSSNVFTLLELPLTW
notes: OxyAkis (KisN), cytochrome P450 from the kistamicin gene cluster of Actinomadura parvosata subsp. kistnae; synthetic codon-optimised gene in pET28a; Heme protein; also called kistamicin OxyA; source: E. coli ArcticExpress, purified (Ni-NTA, anion exchange, size exclusion)
B3: OxyCkis (KisO), cytochrome P450 Oxy enzyme from kistamicin biosynthesis (enzyme, UniProt A0A1V0AGL8 1-426, looked up)
chain: MTDVTPGFVVDEATQVVTPEPDFIITRKHLEPTDSLRALRKRGALLKINGHALGSLDVDGTAYIWLATGYEVVRRILGDHENFSTRRRLTAGEPIDGTGVTPVKELVGHLMNLDPPEHTRLRRMLTPEFTLRRIRRLEPVISEIIEDHLNLIEDAGPPADLQSMYAEPVGGATLCELIGVPRDDRAEFLRRCGLHLDMSRGSKRRAADSMAFNGYLDHLIGLQRKRPDDGFIGMLVQEHGDDVTDDELRGMITVVLLAGLDNISGMLGLGVLALLEHPEQIPVIFEERAVTDRAVDELTRYLSITFQPTPRMALNDVVVDGQTIKAGEIVVCSLPMANRDEALTPDPDVLDLRRQLAGHVGFGHGVHHCLGSSVSRVVLRLAYQALWRRFPDLRLAVPPEDIVFRKAITHGPKRLPVTWGPSAATR
notes: OxyCkis (KisO), cytochrome P450 from the kistamicin gene cluster of Actinomadura parvosata subsp. kistnae; synthetic codon-optimised gene in pET28a; Heme protein; also called kistamicin OxyC; source: E. coli ArcticExpress, purified (Ni-NTA, anion exchange, size exclusion)

What all share (assay): ITC; 1.27 mM X-domain injected into 300-400 µM OxyA/OxyC; 25 °C, stirring 300 rpm; 50 mM phosphate pH 7.4, 150 mM NaCl, 5% v/v glycerol; single binding site model; single titration (n = 1)
What all share (conditions): both partners purified
In general terms: Isothermal titration calorimetry measures the heat released or taken up as one component is titrated into another.

The target of assay [1] is B2.
Assay [2] concerns the target B3.
The target in assay [3] is B1.

Consider B1, for which the “stoichiometry N” value in assay [1] and in assay [2] was 1 throughout.
B2: the affinity in assay [3], expressed as Kd, was 10.4 µM.
Still for that read-out and setting: for B3 the value was 6.1 µM.
